# Measured values as given in article PMC6358098.
# Target: recombinant protruding (P) domain of Macrobrachium rosenbergii nodavirus capsid protein (MrNV-CP) (Macrobrachium rosenbergii nodavirus)
# Experiment: SEC; HiPrep 16/60 Sephacryl S-200 HR, Tris-HCl buffer (20 mM Tris-HCl, 100 mM NaCl, pH 7.6); elution profile overlaid with those of standard protein markers
substance,measurement,value
recombinant protruding (P) domain of Macrobrachium rosenbergii nodavirus capsid protein (MrNV-CP) (domain or fragment),stoichiometry N,2
